Results as given in the DeepSol protein solubility set.

Assay: soluble on expression in E. coli; label from the status in PepcDB or PDB records

Sequence | soluble on expression in E. coli
INVIISTIISTKRADDFIIAMCNLIQRLTIDSLHIVGDIYDRGPGAHIIMDTLCNYHNFDIQWGNHDILWMGAASGNDSCIANVIRMSMRYGNLGTLEDGYGINLLPLATFAMDTYADDPCTIFMPKMNFADTNYNEKTLRLITQMHKAITIIQFKLEAEIIDRRPEFGMSNRKLLEKIDFERGVFVYEGKEYALRDTNFPTVDPADPYRLTDEERELVEKIHYSFMNSEKLKKHMRCLFTYGGMYLVSNSNLLYHASVPLNEDGSFKHVKIRGKEYWGRKLLDKADQLIRTAYFDEEGEDDKEFAMDYIWYMWCGPEAPLFDKDKMATFERYFLEDKEIQKEKKGYYYTLRNREDICDQILDEFGALGPHSHIINGHVPVKTIQGEQPMKANGKLFVIDGGFSKAYQPETGIAGYTLVYHSHGMQL | not soluble
ISEFDSGETMREEQPHLATTWAARGWVEEEGIGSATLGRLVRAWPRRAAVVNKADILDEWADYDTLVPDYPLEIVPFAEHPLFLAAEPHQRQRVLTGMWIGYNERVIATEQLIAEPAFDLVMHGVFPGSDDPLIRKSVQQAIVDESFHTYMHMLAIDRTRELRKISERPPQPELVTYRRLRRVLADMPEQWERDIAVLVWGAVAETCINALLALLARDATIQPMHSLITTLHLRDETAHGSIVVEVVRELYARMNEQQRRALVRCLPIALEAFAEQDLSALLLELNAAGIRGAEEIVGDLRSTAGGTRLVRDFSGARKMVEQLGLDDAVDFDFPERPDWSPHTPR | soluble
ISEFMSDITVTNWAGNITYTAKELLRPHSLDALRALVADSARVRVLGSGHSFNEIAEPGDGGVLLSLAGLPSVVDVDTAARTVRVGGGVRYAELARVVHARGLALPNMASLPHISVAGSVATGTHGSGVGNGSLASVVREVELVTADGSTVVIARGDERFGGAVTSLGALGVVTSLTLDLEPAYEMEQHVFTELPLAGLDPATFETVMAAAYSVSLFTDWRAPGFRQVWLKRRTDRPLDGFPYAAPAAEKMHPVPGMPAVNCTEQFGVPGPWHERLPHFRAEFTPSSGAELQSEYLMPREHALAALHAMDAIRETLAPVLQTCEIRTVAADAQWLSPAYGRDTVAAHFTWVEDTAAVLPVVRRLEEALVPFAARPHWGKVFTVPAGELRALYPRLADFGALAGALDPAGKFTNAFVRGVLAG | soluble
IVGGYTCAANSIPYQVSLNSGSHFCGGSLINSQWVVSAAHCYKSRIQVRLGEHNIDVLEGNEQFINAAKIITHPNFNGNTLDNDIMLIKLSSPATLNSRVATVSLPRSCAAAGTECLISGWGNTKSSGSSYPSLLQCLKAPVLSDSSCKSSYPGQITGNMICVGFLEGGKDSCQGDSGGPVVCNGQLQGIVSWGYGCAQKNKPGVYTKVCNYVNWIQQTIAAN | soluble
KDINLYKGSIPSGKQQGVDAILISNPNLINILEQAKQKNTAQGSESTTNKIIGYTTTANVNVDNQNIFSVSKLNNEQFQRKIIVNATEETLDQSQTLQSNESIVLPMPGKYKSTDKNKVMITQGPNLIGIHANEKENIETKKFVNW | not soluble
KDMFNTKSSNGKLRIEDASHNARKLGLAPSSTDEKKIRDLYGDSLTYEQYLEYLTMCVHDRDNMEELIKMFSHFDNNSSGFLTKNQMKNILTTWGDALTEQEANDALNAFSSEDRINYKLFCEDIL | soluble
KEMRQQVPATIKGPTEEYEYYMELMALLNNLLETARSRGFKFLDSHIEAPEQSSIFLMYPLVSEDHRLISFITDNLRLMAMGQMSPHELEGLLEQEIEAIQNELLLPSRSLQRTAE | not soluble
KETCSTGLYTHSGECCKACNLGEGVAQPCGANQTVCEPCLDSVTFSDVVSATEPCKPCTECLGLQSMSAPCVEADDAVCRCAYGYYQDEETGHCEACSVCEVGSGLVFSCQDKQNTVCEECPEGTYSDEANHVDPCLPCTVCEDTERQLRECTPWADAECEHHHHHH | soluble
KFGGINETYLPPNNTVRTAQASFDENFPHFRTEPIKLVITGATNQQLVDVYQQANKVEGLTDRFKPSSATKDGTTVLSAGIENREDNAKVVEQLRAIDAPEGVSVYIGGIPAMEVESIEALFDKLP | not soluble
KIIEEFIDSLFSGVVETSETKQLKADLLANAEDRYEDLLSQGKSENEAIGTIISEFGTIDELMEELNLENKQVDEPNDS | not soluble
KKEKSPKGKSSISPQARAFLEEVFRRKQSLNSKEKEEVAKKCGITPLQVRVWFINKRMRSK | soluble
KKPIPTLFLHGFGGSANSEKFMVKQAEKRGVTKDIITAYVSKDGAVTFKGKLRKDAVNPIVKIELENNRQGYLDKNAAWFKNVLTKLQSEYNFDKFNFVGHSMGNLTFAQYMMTYGNDKSLPQLNKQVNIAGTFNGVLNMNEDVNEITVDKDGKPSRMNQPYQQLRVLKDIYKGKGIEVLNIYGDLKDGTHSDGRVSNSSSKSLKYLLGNSPKSYRESKYEGEPAQHSQLHENENVANELIDFLWKK | not soluble
KKPLSVFKGPLLHISPAEELYFGSIESGEKKTLIVLTNVTKNIVAFKVRTTAPEKYRVKPSNSSCDPGASIDIIVSPHGGLTVSAQDRFLIMAAEMEQSSGTGPAELSQFWKEVPRNKVMEHRLRCHTVESSKPNSLML | soluble
KQKGNYGEYLADDNLINNPKLKEAGYDLERIGGKVPTSPDDKITKGIDGIYINKNPNSNIKYVIDEAKFGKAGLSAKTRDGKQMSDSWLMGSRSRDNRILKALNNNEELADDILEALANNQVERILSKVDINGEVTTYRLDSEGNIIGLWP | soluble
KQKKMQAMIVTSRPDRVIRMIHHKLHRGVTIINDAEGTYNHEHKAILVTIITRAEFNDFKYIMKKTDKNAFVSVADNVNIIGRFVEED | not soluble
KSDSENIKDVKLQLNYAYEIIPVDYTNCNIDYLTTHDFYIDISSYKKKNFSVDSEVESYITTKFTKNQKVNIFGLPYIFTRYDVYYIYGGVTPSVNSNSENSKIVGNLLIDGVQQKTLINPIKIDKPIFTIQEFDFKIRQYLMQTYKIYDPNSPYIKGQLEIAINGNKHESFNLYDATSSSTRSDIFKKYKDNKTINMKDFSHFDIYLWTK | soluble

Sequence | soluble on expression in E. coli
KTISLYKDSIPKEKTEGTDAILISDNQLINQLQTAAKTSSSQNKANTAAITFKQSNKSETDQSTTSQVIGYTTTASLKADKKNIFDVKKLNNEKSERKIIVGATVETLNQANTLQANEAIIKPAPGKYQSTDSHKVMITQGPNIVGIHANEKEDKETQKFINW | soluble
KTNTEQFCASCHMQDAYPEYLHSVHYQTRTGVGASCPDCHVPHEFGAKMKRKIIAAKEVYAHYTGKVDTLEKFNAHRLEMAQNEWARMKANDSKECRNCHNVDRMTFNDQRSVAARMHQKMKTEGKTCIDCHKGIAHQLPDMSGVESGFKDEK | not soluble
KTTTTIYDKNKEYAGKLSGQKGTYVELNAISDHLKNAVIATEDRTFYENNGVNFKRFFLAVATLGKFGGGSTITQQLAKNAYLSQDQTIKRKAREFFLALELTKKYSKAEILTMYLNNSYFGNGVWGVEDASRKYFGTSAANLTVDEAATLAGMLKGPEVY | not soluble
KTTVRVGLVQWQMRPYKTLDDVFEQVEFFVDAVSDYKSDFVLFPEYFNAPLMAKFNHLGEAQSIRGLAQYTEEVRDRFINLAISYNINIITGSMPYVKEDGGLYNVGFLVRRDGSYEMYEKVHVTPDEIKSWGLSGGKMVQTFDTDCAKIGILICYDVEFPELSRIMADQGMQILFVPFLTDTQNGYSRVRVCAQARAIENECFVVIAGSVGNLPRVHNMDIQYAQSGVFTPCDFAFPTDGKRAEATPNTEMILVSDVDLNLLNELHTYGSVRNLRDRRHDLYELKIKK | not soluble
KVILKEDAEMLDEVVVTGYGMSQKRSLMTNSISKLDDKVLQNAAMSNAAQSLQGTVSGLRVTNTSGKPGSSPNIVLRGGASINKNLEGPLVVVDGLVRSMDDINPSDIESIQVLKDAASTAIYGARANNGVILVTTKKGVEGR | not soluble
KVKELNLHELCAVCLEDFKPRDELGICPCKHAFHRKCLIKWLEVRKVCPLCNMPVLQLAQL | soluble
KVVLISDVHVGSSQFLEDAWLDFLDFLKGESDSEEMREIASQVRYLVVAGDLVDGIGIYPDQEMELDILDVYEQYRKAADYFKEIPRHIRVIISPGNHDAVRQAEPQPALPERICADFPENVTFVGNPALVDLDGIRILIYHGRSIDDLVASVPGVSYHEPAGAVLEMLKRRHLAPTYGSRVSISPEKKDYFIIDPVPDIIHTGHVHTLGVQRYKNVLLVNSGTWQAQTEFQKRVNLVPVPARVPVVDLADFDVKILAFD | not soluble
KVWWTLPYGPHEDEKNLTLEDWRDRVLDSTREAVAIRQRAAVDVGVLLSGGVDSSMLVGLLREVGVEDLSTFSIGFQDAGGERGDEFQYSDLIAKHYGTRHHQLRIQESEIIEQLPAAFRAMSEPMVSHDCIAFYLLSREVAKHCKVVQSGQGADELFAGYHWYPQVDGASDPVAAYRYAFVDRSYAEYADTVQPKWRTANDAAGDFVRDHFAQPGASAAVDKALRLDSTVMLVDDPVKRVDNMTMAWGLEARTPFLDYRLVELSARIPGKFKLPDGGKQVLKEAARLVIPSEVIDRKKGYFPVPGLKHLQGDTLNWVRELLTDPSQDRGLFNPTMVDKLLTNPEGQLTPLRGSKLWQLAALNLWLSEQ | not soluble
KYDNKEFSSAVGHYGVGNGPYFMIPGYGPYTLREVTDTVDGMYLPLSYLNIWAGLGKWALEGLEKRALLVPQEAQLDSSPDPYVLTRDVYIQRQNFKAEIDTVEEVNPEEEALLDEYLDEF | not soluble
LASIFVDVSSVEPGVQLTVKFLGKPIFIRRRTEADIELGRSVQLGQLVDTNARNANIDAGAEATDQNRTLDEAGEWLVMWGVCTHLGCVPIGGVSGDFGGWFCPCHGTHYDSAGRIRKGPAPENLPIPLAKFIDETTIQLG | soluble
LDRHLQPLLLELATLTRAENSGVAPKVSDERKELDRLLAEQEGNRRALTAANVAVDDMELEIRRVQEDERKLRRREAEGKRQLAAEVDEEKRRDIKHDIYAAKSRIADLMSELQEAHNEIHALRNNRDLNQQRVSDTEARIDKARAAVDALGEDTTAADRHERIETLRLELPSDVVAQFDEQRDENEVGVASFNNRSCGGCFIILPPADISIIRRAPMNVLPQCPDCGSYLVRQG | not soluble
LEAVAPERPRCAYCSAEASKRCSRCQNEWYCCRECQVKHWEKHGKTCVLAAQGDRAK | soluble
LEQLSMNLLDGALRIEHFALPQTKVAYLHLSQINFEQILALLKYQQIELKGRANATFPFWIEGKPCYVCNGSMAQAVSSRLKIAPELMQAISQSNGYSERLLAYLLHDTRITDLTSKVNINSEGEMALQAKLNMQLNQQAQTKINFNYHHQENVFKLWRTLNAGTYVEQNFENSIYQKLDRTNE | not soluble
LEQYVVVSNYKKQENSELSLQAGEVVDVIEKNESGWWFVSTSEEQGWVPATYLEAQN | soluble
LFTPDKQRITESVAFKDLSSPELEQYIGDTQAEKLRADIELIDGVYQPFDKEEYLAGQLAPVFFGSALNNFGVQELLNCFVEIAPSPQPVAAVERKVDPHEEEFTGFVFKIHANMDPNHRSCIAFVKICSGRFERNTNYKHIRLGKQFRFSSPTAFMAQRKETVDEAYAGDIIGLPDTGNFQIGDTLTAGEELHFRGLPSFSPELFKYIENQDPMKAKQLAKGIDQLMGEGVAQLFTNQFNGRKIIGTVGQLQFEVIQYRLLHEYGAQCRWEPISLYKACWIDSDKPEALEAFKKRKAQYMAKDIAGRDVYLADSGYVLNMAQQDFPDIRFHFTSEF | not soluble
LGQTTERYKSVIESMIEGIIIIDLEGKIIDHNKAATQIIGYEDLVLIGNDFSLGPGEAIREDETKFPFEEFPGIKTLRTGMPYKNVILGWIIPGKDTIWLSINSEPVKNENGEQVAVVCSYSDVT | not soluble
